Patent US20200239556A1 (BIOVERATIV USA, published 2020)

Legend:
[1] = target: T1, human Factor Bb (human, UniProt P00751 260-764); assay: direct ELISA screen of hybridoma clones on fBb
T1 construct: The protein in the assay was purified human Factor Bb; also called fBb

[2] = target: T2, full length human Complement Factor B (human, UniProt P00751 26-764); assay: ELISA, antigen coated on the plate, HRP goat anti-mouse detection
T2 construct: also called fB; FB
T2 sequence (P00751 26-764 limits assumed): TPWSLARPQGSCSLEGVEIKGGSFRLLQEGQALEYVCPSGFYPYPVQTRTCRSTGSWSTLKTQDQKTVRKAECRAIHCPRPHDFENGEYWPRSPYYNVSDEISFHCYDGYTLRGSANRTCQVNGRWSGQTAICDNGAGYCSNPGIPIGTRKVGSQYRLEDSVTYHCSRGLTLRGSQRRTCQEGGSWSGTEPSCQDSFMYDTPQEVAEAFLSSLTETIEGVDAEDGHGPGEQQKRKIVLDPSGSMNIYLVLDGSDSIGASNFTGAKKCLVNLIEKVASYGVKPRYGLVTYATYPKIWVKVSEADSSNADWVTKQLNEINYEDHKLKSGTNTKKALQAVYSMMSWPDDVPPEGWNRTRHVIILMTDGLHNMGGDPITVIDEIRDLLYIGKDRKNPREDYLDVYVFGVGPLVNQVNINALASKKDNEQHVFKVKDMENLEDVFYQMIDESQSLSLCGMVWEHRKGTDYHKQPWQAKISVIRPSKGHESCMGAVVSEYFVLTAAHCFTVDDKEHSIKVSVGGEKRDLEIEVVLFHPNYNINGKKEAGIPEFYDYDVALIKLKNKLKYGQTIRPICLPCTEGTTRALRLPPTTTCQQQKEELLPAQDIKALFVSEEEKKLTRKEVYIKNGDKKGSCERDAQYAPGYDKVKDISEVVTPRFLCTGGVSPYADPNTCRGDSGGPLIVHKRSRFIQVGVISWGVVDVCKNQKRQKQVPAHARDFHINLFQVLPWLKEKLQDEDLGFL

T1 sequence (P00751 260-764 limits assumed): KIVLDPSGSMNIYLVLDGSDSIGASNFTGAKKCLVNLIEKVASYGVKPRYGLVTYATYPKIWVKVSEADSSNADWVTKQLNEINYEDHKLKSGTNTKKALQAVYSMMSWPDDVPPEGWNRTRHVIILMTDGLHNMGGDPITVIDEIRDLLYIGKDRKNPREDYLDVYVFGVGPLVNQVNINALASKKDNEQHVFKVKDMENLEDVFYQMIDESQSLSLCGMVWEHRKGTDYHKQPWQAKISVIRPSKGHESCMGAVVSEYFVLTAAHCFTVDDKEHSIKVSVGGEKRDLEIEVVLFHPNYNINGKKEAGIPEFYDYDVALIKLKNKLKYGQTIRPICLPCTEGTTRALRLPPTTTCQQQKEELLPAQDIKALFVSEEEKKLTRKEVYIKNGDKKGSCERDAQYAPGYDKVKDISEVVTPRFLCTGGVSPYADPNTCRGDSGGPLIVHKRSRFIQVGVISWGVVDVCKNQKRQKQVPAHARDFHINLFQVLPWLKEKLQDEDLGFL

binding result [1]: binds
binding result [2]: binds
B1: anti-Factor B Ab (antibody, V domains shown)
VH: EVQLQQSGPELVKPGASVKMSCKASGYSFTDYLMNWVKQSHGKSLEWIGRINPYNGDAFYNQRFKGKATLTVDKSSSTAHMELRSLTSEDSALYYCARLENDYGFTYWGQGTLVTVSA
VL: DIVMTQAAFSNPVTLGTSASISCSSSKSLLHSNGITYLYWYLQRPGQSPQLLIYRMSNLASGVPDRFSGSGSGTDFTLRISRVEAEDVGVYYCAQMLERPWTFGGGTKLEIK
notes: Mouse monoclonal antibody purified from hybridoma supernatant (NZBW mice immunised with fBb); also called FBb Ab; anti-Factor B antibody
